The values below come from the DeepSol protein solubility set.

The series can be described thus: soluble on expression in E. coli; label from the status in PepcDB or PDB records.
With “MGSDKIHHHHHHMTLELCRLSLQQTQELLRLTDATLKNICSRRFSGEELYSEAIRRVLGGGGKRGPESIFLLIDGIGGTSRGWIFQLQAGELVRSSDEILVDADSVYSLGRLGSEVLVSNWRESFESIERYQVIFHPDIVKHIAKPIRNFVACQISGESNGALLAFNYAGEATEYDGDVLRGLSVVIGSLVTLSVMVRETEHAFIYTIEALARACEAAEESTGDHIVRVNRYAGALAAHMDLSPDFVEVISYSAQMHDVGKIRVPTAILLKPGPLDEAEERVMRLHPEFGEQILGDSPRLSVAREIALSHHENWDGSGYPRGLQGEAIPLAGRIVKLADVYDALRSRRSYKKALSHAEARAVFLNGDERITPRSHFDPRVLETFFRIEPLFERIYQSSRNQQV”, the “soluble on expression in E. coli” value is listed as “not soluble”. The same measure for “MSNPILTSTLIILRGNSSSGKTTIAKQLQEHFGQGTLLVSQDVVRRDMLRVHDTMGNLSHDLLFEITKYGKGKCEFVILEGILNSHRYGEMLKELIRYFDENAFAYYFDLSLEETIRRHNTRDKRHEFGEDSLQKWYNPHDTIKVATETIFTDNFTQKDIFDAILNDVAIEKQALEHHHHHH”: “soluble”; for “EHLRLDNDQREKYIQEARNMGSTIRQPKLSNLSPSVIAQTNWKFVEGLLKECRNKTKRMLVEKMGREAVELGHGEVNITGVEENTLIASLCDLLERIWSHGLQVKQGKSALWSHLLHYQENRQRKLTSGSLSTSGILLDSERRKSDASAVMSPLRISLIQDMRHIQNIGEIKTDVGKARAWVRLSMEKKLLSRHLKQLLSDHELTKKLYKRYAFLRCDDEKEQFLYHLLSFNAVDYFCFTNVFTTILIPYHILIVPSKKLGGSMFTANPWICISGELGETQILQIPRNVLEMTFECQNLGKLTTVQIGHDNSGLYAKWLVECVMVRNEVTGHTYKFPCGRWLGKGMDDGSLERVLVGELLTSLPEVDERPCRTPPLQQSPSVIR”: “soluble”; for “MAADLSAYPDRESELTHALAAMRSRLAAAAEAAGRNVGEIELLPITKFFPATDVAILFRLGCRSVGESREQEASAKMAELNRLLAAAELGHSGGVHWHMVGRIQRNKAGSLARWAHTAHSVDSSRLVTALDRAVVAALAEHRRGERLRVYVQVSLDGDGSRGGVDSTTPGAVDRICAQVQESEGLELVGLMGIPPLDWDPDEAFDRLQSEHNRVRAMFPHAIGLSAGMSNDLEVAVKHGSTCVRVGTALLGPRRLRSP”: “not soluble”.

For “MSKILVFGHQNPDSDAIGSSYAFAYLAREAYGLDTEAVALGEPNEETAFVLDYFGVAAPRVITSAKAEGAEQVILTDHNEFQQSVADIAEVEVYGVVDHHRVANFETASPLYMRLEPVGSASSIVYRMFKEHGVAVPKEIAGLMLSGLISDTLLLKSPTTHPTDKVIAPELAELAGVNLEEYGLAMLKAGTNLASKSAEELIDIDAKTFELNGNNVRVAQVNTVDIAEVLERQAEIEAAIEKAIADNGYSDFVLMITDIINSNSEILAIGSNMDKVEAAFNFVLENNHAFLAGAVSRKKQVVPQLTESFNA”, the “soluble on expression in E. coli” value was “soluble”. In the case of “MGSSHHHHHHSSGLVPRGSHMKKRIGIVGAGTAGLHLGLFLRQHDVDVTVYTDRKPDEYSGLRLLNTVAHNAVTVQREVALDVNEWPSEEFGYFGHYYYVGGPQPMRFYGDLKAPSRAVDYRLYQPMLMRALEARGGKFCYDAVSAEDLEGLSEQYDLLVVCTGKYALGKVFEKQSENSPFEKPQRALCVGLFKGIKEAPIRAVTMSFSPGHGELIEIPTLSFNGMSTALVLENHIGSDLEVLAHTKYDDDPRAFLDLMLEKLGKHHPSVAERIDPAEFDLANSSLDILQGGVVPAFRDGHATLNNGKTIIGLGDIQATVDPVLGQGANMASYAAWILGEEILAHSVYDLRFSEHLERRRQDRVLCATRWTNFTLSALSALPPEFLAFLQILSQSREMADEFTDNFNYPERQWDRFSSPERIGQWCSQFA”, the “soluble on expression in E. coli” value is recorded as “soluble”. The same measure for “MVKRNKVIKQQSCPLIDTINVISRKWLLLVLNTIGNEGKLGFNSILNSIDDISPKALSDVLKTMEEMGLVKKVIVKSSPPRVEYSLTYEGKKLRKAVIPLFKWAAEHTGHYECPILQSNKLNKEEYS”: “soluble”; for “MDRISGLPDEVLVKILSFVPTKVAVSTSILSKRWEFLWMWLTKLKFGSKRYSESEFKRLQCFLDRNLPLHRAPVIESFRLVLSDSHFKPEDIRMWVVVAVSRYIRELKIYSSHYGEKQNILPSSLYTCKSLVILKLDGGVLLDVPRMVCLPSLKTLELKGVRYFKQGSLQRLLCNCPVLEDLVVNLSHHDNMGKLTVIVPSLQRLSLSTPSSREFVIDTPSLLSFQLVDRNDNSHTFLIENMPKLREAYINVPFADIKSLIGSITSVKRLAISSEVGYGEGFIFNHLEELTLWNKYSSNLLVWFLKNSPNLRELMLVSETDVSFFH”: “soluble”.

For “MGSDKIHHHHHHMRIYDPFRKKWIEEEIETPFPSKGLVATFPFVDLHVHVRLNGGEDYSSLEEASLVGGFFKVVVQPNTKPLIDSKEVLERHLDLSKNRAVEFLFAVSPFGSIEAEGERVVGFSTDGIEYDYPTLVETMKKKKKALWFDHSQMYEVDGIFYEGAPLPFQKRPRSNEAIAIARTVLTGLEYGFERFHIQHVTTKYSVEVISFLKNLAKVSCEVTPHHLFFCYEDIKNTNFKINPPLGSPEDRRALIEAVKKDVIDVLATDHAPHHEKPDDFLTAPYGSTSIEIAFPAYYTALGDLELVVKKLTKKPLEVLGVEARLTEDTLVFIDPEAEFIVDAKKFKSKGKNSMFDGVRLKGKVVALKLKGRWVMIDGEVIADQKEND”, the “soluble on expression in E. coli” value is recorded as “not soluble”.

As for “MNRGVIVTGGGHGIGKQICLDFLEAGDKVCFIDIDEKRSADFAKERPNLFYFHGDVADPLTLKKFVEYAMEKLQRIDVLVNNACRGSKGILSSLLYEEFDYILSVGLKAPYELSRLCRDELIKNKGRIINIASTRAFQSEPDSEAYASAKGGIVALTHALAMSLGPDVLVNCIAPGWINVTEQQEFTQEDCAAIPAGKVGTPKDISNMVLFLCQQDFITGETIIVDGGMSKRMIYHGDWNWFYKIDK”, the “soluble on expression in E. coli” value is recorded as “soluble”. The same measure for “MSLSVTIFSEFESEVRSYCRAFPAVFSRAKGEYLLAEDGRKFLDFFAGAGSLNYGHNDDDMIEAAISYMRQDGVLNGLDLNTSAKAEFIETFRTLVLQPRDLNYKLQFTGPTGANAVEAAMKLARKVTQRPDIACFSGGYHGMSLGALSVTANAVKRASLVVQVPGVVRLPYEGAIEGSVASQLRVLQDMLCRPGFGIDPPAAFLLECVQGEGGVNCASAEWLQGVAALARKLGALLIVDEIQTGCGRTGRFFSFEHACIEPDIICLSKSLGGGGLPFSLNLIKPEIDIWNPGEHNGTFRGNNLAMVMATAALRKYWATPHFAHEVEEKGLAVAACLKNALQAFDGQVRVVGKGLMIGLRFQHAEHAREASRRLFESGLLIEVCGPRNEVLKLMPVLTMDRQAMLAAASRIAACAQALLSRSLESETEGHHHHHH”: “soluble”; for “MGSDKIHHHHHHAQRVITASGKYITKNIKVTRFDQIYLKGSPTIEYTQSPGASKVQIAGSDNLVDLVECRVEGSTLIVNMKSRTNISYGKEGRLKILVSSPMLKSASLQGSGDIHLGSLKVEGLDVSLTGSGDIVAENITCNSDFSALLKGSGDIDVKGQLRAKSVNLNLQGSGDLKVAGVTGSEISAMLQGSGDLKVGSTNITSTVMAKLSGSGDMDVLDIRANSVSGQLDGSGDMTLSGSACNATLVLNRSGELSARKLDAENVTAHVNGSGEISCTATKTLETNIQGSGEISYKGNPSIRSTGKNHLNRL”: “not soluble”; for “MGSSHHHHHHSSGLVPRGSHMASAVVQEVSAEAQAPAVVKNPPKLALKIDRADVNQLPRNFRMGSDKYVGVTKTGIMPTRKGMDTMNVSASSCFSEKELEAILKKVPVKPSQFYDVDLRGESHGYLNGTAVSWFANHDWGNDGRTEDIIIPLEKEQLASLKGSTVKSIYRFDDKKNVILSPVYVNYNKVRTEEEMVKQHGANYFRLTLQDHFRPDDPDVDKFLEFYKSLPKDAWLHYHCYAGMGRTTIFMVMHDILKNAKDVSFDDIIQRQKLIGIVDLSEIPDKKKNYGRKAYIERYQFVQHFYDYVKENPDLKTPYSVWAKKNKVNSWEPDYNGYIWRLDTKDRNQLPRNFRTMNSAFRTDVNVKKTGKGFTPTPTRKGLDTLYMSGSAEFSNGELQAMLPVLKQQAKGPIYIMDLRQETHGVFNGNAVSWYGLRDWGNLGKNKAEVLKDENSRLNAARGKSLIVAELDKDKMPIDPKPVKIESVMTEQQLVEKNGLHYYRIAATDHIWPSAANIDEFINFTRTMPANAWLHFHCQAGAGRTTAYMAMYDMMKNPDVSLGDILSRQYLLGGNYVAYEIAKPKPDQWKADYYHQKAHMIEKFYQYVQENHADGFKTSWSQWLAAHQDV”: “soluble”.

For “MGSDKIHHHHHHMKTVIIVQARMTSTRLPGKVLKKVLDKPLLEYQIERLKRVKLADEIVIATTINSTDLPIIELCDRLSIPYFLGSEEDVLTRYYGAAKEHQADVVVRITSDCPLIDPLVINKVIQFFLDYRHECDYVSNSLERTYPRGMDTEVFSFLALHQAFVEAIAQPDREHVTPFIYMHPERYRLAQVVYSENQSSHRWTVDTADDFELIKRIIETLYPEIPKFTLEDCLDLFREYPDWSLINAHVEQKKYAA”, the “soluble on expression in E. coli” value was “not soluble”.

For “MGITTNLISEVSKFYYALKYHAKFMSLGELGCYASHYSLWEKCIELNEAICILEDDITLKEDFKEGLDFLEKHIQELGYIRLMHLLYDASVKSEPLSHKNHEIQERVGIIKAYSEGVGTQGYVITPKIAKVFLKCSRKWVVPVDTIMDATFIHGVKNLVLQPFVIADDEQISTIARKEEPYSPKIALMRELHFKYLKYWQFVLEHHHHHH”, the “soluble on expression in E. coli” value was “soluble”.

As for “MSSTLREASKDTLQAKDKTYHYYSLPLAAKSLGDIARLPKSLKVLLENLLRWQDGESVTDEDIQALAGWLKNAHADREIAWRPARVLMQDFTGVPAVVDLAAMREAVKRLGGDTSKVNPLSPVDLVIDHSVTVDHFGDDDAFEENVRLEMERNHERYMFLKWGKQAFSRFSVVPPGTGICHQVNLEYLGKAVWSELQDGEWIAYPDSLVGTDSHTTMINGLGVLGWGVGGIEAEAAMLGQPVSMLIPDVVGFKLTGKLREGITATDLVLTVTQMLRKHGVVGKFVEFYGDGLDSLPLADRATIANMSPEYGATCGFFPIDAITLEYMRLSGRSDDLVELVETYAKAQGMWRNPGDEPVFTSTLELDMGDVEASLAGPKRPQDRVALGDVPKAFAASAELELNTAQRDRQPVDYTMNGQPYQLPDGAVVIAAITSCTNTSNPSVLMAAGLLAKKAVTLGLKRQPWVKASLAPGSKVVSDYLAQAKLTPYLDELGFNLVGYGCTTCIGNSGPLPEPIETAIKKGDLTVGAVLSGNRNFEGRIHPLVKTNWLASPPLVVAYALAGNMNINLATDPLGYDRKGDPVYLKDIWPSAQEIARAVELVSSDMFRKEYAEVFEGTEEWKSIQVESSDTYGWQSDSTYIRLSPFFDEMQAQPAPVKDIHGARILAMLGDSVTTDHISPAGSIKPDSPAGRYLQNHGVERKDFNSYGSRRGNHEVMMRGTFANIRIRNEMLPGVEGGMTRHLPGTEAMSIYDAAMLYQQEKTPLAVIAGKEYGSGSSRDWAAKGPRLLGIRVVIAESFERIHRSNLIGMGILPLEFPQGVTRKTLGLTGEEVIDIADLQNLRPGATIPVTLTRSDGSKETVPCRCRIDTATELTYYQNDGILHYVIRNMLN”, the “soluble on expression in E. coli” value was “not soluble”.

With “MFQAINASGSGLTTARKWMQVTSNNIVNANTPAAPGADLYERRSVVLESNNSFASMLDGAPTNGVKIKSIEADKTENLVYDPTHPHANEEGYVRYPNIDVTAEMTNVMVAQKMYEANTSVLNANKKMLDKDLEIGRG”, the “soluble on expression in E. coli” value is “not soluble”.
